Data set [1] in a line: ThT fluorescence enhancement by biopharmaceuticals. The class given is physicochemical. The note with it: after alkylation of cysteine residues. As for the experimental part:
(§1) Fluorescence of ThT—protein/peptide adducts was measured as follows. […] Fluorescence was measured at 485 nm upon excitation at 435 nm. Background signals from buffer, buffer with ThT and protein/peptide solution without ThT were subtracted from corresponding measurements with protein solution incubated with ThT. Regularly, fluorescence of Aβ was used as a positive control, and fluorescence of FP10, a non-amyloid fibrin fragment^16, was used as a negative control. Fluorescence was measured in triplicate on a Hitachi F-4500 fluorescence spectrophotometer (Ltd., Tokyo, Japan).
β2-GPI was reduced and alkylated as follows. Sixhundredforty μl of β2-GPI stock was mixed with 640 μl of 8 M Urea (cooled solution) in 0.1 M Tris pH-8.2. […]
(§2) Protein therapeutics were obtained from the local hospital pharmacy and analyzed within the expiry limits as stated by the manufacturers.
Fluorescence of Thioflavin T (ThT; Sigma T-3516, St. Louis, Mo., USA) and Congo red (CR; Aldrich Chemical Company Inc., Milwaukee, Wis., USA) was measured on a Hitachi F-4500 spectrophotometer at an excitation wavelength of 435 nm and emission wavelength of 485 nm for ThT and an excitation wavelength of 550 nm and emission wavelength of 595 nm for Congo red. […] Fluorescence was measured in triplicate. Background fluorescence of both protein in buffer and dye-solution were subtracted from the total fluorescence signal. […]

The next data set has as its target tPA (Homo sapiens, UniProt P00750). Nature of the data set: tPA/plasminogen activation assay. Type of data set: biochemical. Conditions: β2gpi exposed to cardiolipin or alkylated, 100 μg/ml. The method, then: β2-GPI was reduced and alkylated as follows. Sixhundredforty μl of β2-GPI stock was mixed with 640 μl of 8 M Urea (cooled solution) in 0.1 M Tris pH-8.2. The solution was degassed with N2 gas for approximately 6 minutes. From a 1 M DTT stock 12.8 μl was added to the solution, mixed and incubated for 3 hours at room temperature. A 1 M Iodoacetamide (Sigma; I-6125) was prepared, of which 25.6 μl was added to the β2-GPI reaction mixture. The solution was subsequently dialysed against PBS. […] Signals obtained with alkyl-β2gpi are compared with those obtained with native β2gpi starting material and with positive control acid/heat denatured amyloid-like misfolded γ-globulins.
Exiqon Peptide Immobilizer plates were blocked for 1 hour with PBS, 1% Tween20 and rinsed twice with distilled water. The conversion of the chromogenic substrate S-2251 (Chromogenix, Italy) by plasmin was kinetically measured at 37° C. on a Spectramax340 microplate reader at a wavelength of 405 nm. […] Denatured γ-globulins (100 μg/ml) with amyloid-like structure was used as reference and positive control. Lyophilized γ-globulins (Sigma, Mo., USA) were dissolved in a 1(:)1 volume ratio of 1,1,1,3,3,3-hexafluoro-2-propanol and trifluoro-acetic acid and subsequently dried under air. […]
as §2

Data set [2] in a line: Thioflavin T fluorescence of protein solutions. The class given is physicochemical. Conditions: conclusion from ThT fluorescence, Plg-activation assay and TEM. As for the experimental part:
as §1
Formulated protein therapeutics were obtained from the local hospital pharmacy and were used as supplied by the manufacturers. […] Lyophilized therapeutics were dissolved according to the manufacturers recommendations. GH, zinc-insulin, Cealb and gelatin were stored at −20, 4, room temperature, 37 and 65° C. Other protein therapeutics were only kept at 4° C., and assayed for the presence of cross-β structure at shown time points. Enhancement in fluorescence of ThT and Congo red was measured with all formulated protein therapeutics. […]
ThT fluorescence of β2GPI was measured as follows. […] In the ThT fluorescence assay, fluorescence of β2GPI in buffer, of CL or DXS500k in buffer, of buffer and ThT alone, and of β2GPI-CL adducts and β2GPI-DXS500k adducts, with or without ThT, was recorded as described above (section ThT fluorescence). In addition, TEM images were recorded with CL, β2GPI from human plasma, with or without CL, and with recombinant β2GPI, as described^5.
To prepare structurally altered ovalbumin (OVA) with amyloid cross-β structures, purified OVA (Sigma, A-7641, lot 071k7094) was heated to 85° C. […] Native OVA (nOVA) and heat-denatured OVA (dOVA) were tested in the ThT fluorescence assay and in the Plg-activation assay. In the fluorescence assay and in the Plg-activation assay, 25 and 100 μg ml^−1 nOVA and dOVA were tested, respectively. […]
MSA (#126674, Calbiochem) was dissolved in 8 M urea, 100 mM Tris-HCl pH 8.2, at 10 mg ml^−1 final concentration. […] The presence of aggregates or fibrils was analyzed using TEM. […]

A further data set deals with T1, fibronectin F4,5 (Homo sapiens, UniProt P02751).
T1 construct: human fibronectin finger 4,5 (Fn F4,5) fragment; made in house; host or cells: HEK293E
Kind of data set: Affinity determination ELISA, fibronectin F4,5 on coated (mis)folded proteins. The class given is binding. Conditions: coated protein as labelled. An excerpt: (§3) Synthetic genes of human BiP, human fibronectin finger 4,5 (Fn F4,5) fragment, and human tissue-type plasminogen activator finger EGF (tPA F-EGF) fragment were ordered from Geneart (Regensburg, Germany). These DNA constructs were digested using BamHI and NotI, and ligated into vector pABC674 (ABC-expression facility, Utrecht University, The Netherlands), which contains a carboxy-terminal FLAG-tag—His-tag. HEK293E cells were transiently transfected with these constructs using the polyethylene-imine method, and grown for 5-6 days.
(§4) Denatured proteins and their native controls BSA (Sigma, A7906), glycated BSA, Hb (Sigma, H7605), glycated Hb, ovalbumin (Sigma, A6741), heat-denatured misfolded ovalbumin, human γ-globulins (Sigma, G4386), heat-denatured misfolded γ-globulins, alkyl-γ-globulins, lysozyme (ICN Biochemicals, 100831) and alkyl-lysozyme were coated on ELISA plates (Greiner Microlon high-binding, 655092) in 50 mM NaHCO3-buffer pH 9.6. The plates were blocked using Blocking reagent (Roche 1112589). […] Bound protein is detected by the FLAG-tag using 1:3000 anti-FLAG-HRP (Sigma A-8592) in PBS-T, or by 1:1000 Ni-NTA-HRP (Qiagen 34530) in PBS-T. The HRP reaction Is performed using the TMB substrate (Biosource 4501103 or Tebu Bio 101TMB100-500), stopped using 10% H2SO4 and absorbance was measured at 450 nm.
A general note: In an ELISA, binding on a coated surface is turned into a signal by an enzyme label.

In another data set the target is T2, tPA F-EGF (Homo sapiens, UniProt P00750).
T2 construct: made in house; host or cells: HEK293E
T2 sequence (P00750 36-120 limits assumed): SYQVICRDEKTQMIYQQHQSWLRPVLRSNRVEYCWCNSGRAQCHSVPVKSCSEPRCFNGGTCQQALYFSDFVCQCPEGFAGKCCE
Kind of data set: Affinity determination ELISA, tPA F-EGF on coated (mis)folded proteins. Type of data set: binding. The note with it: coated protein as labelled, relative to native control.
Excerpt: as §3, §4

T1 sequence (P02751 182-276 limits assumed): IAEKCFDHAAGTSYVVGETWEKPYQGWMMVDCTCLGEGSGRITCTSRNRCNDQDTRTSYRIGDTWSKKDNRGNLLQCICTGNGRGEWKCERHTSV
Sequence of tPA (P00750 36-562): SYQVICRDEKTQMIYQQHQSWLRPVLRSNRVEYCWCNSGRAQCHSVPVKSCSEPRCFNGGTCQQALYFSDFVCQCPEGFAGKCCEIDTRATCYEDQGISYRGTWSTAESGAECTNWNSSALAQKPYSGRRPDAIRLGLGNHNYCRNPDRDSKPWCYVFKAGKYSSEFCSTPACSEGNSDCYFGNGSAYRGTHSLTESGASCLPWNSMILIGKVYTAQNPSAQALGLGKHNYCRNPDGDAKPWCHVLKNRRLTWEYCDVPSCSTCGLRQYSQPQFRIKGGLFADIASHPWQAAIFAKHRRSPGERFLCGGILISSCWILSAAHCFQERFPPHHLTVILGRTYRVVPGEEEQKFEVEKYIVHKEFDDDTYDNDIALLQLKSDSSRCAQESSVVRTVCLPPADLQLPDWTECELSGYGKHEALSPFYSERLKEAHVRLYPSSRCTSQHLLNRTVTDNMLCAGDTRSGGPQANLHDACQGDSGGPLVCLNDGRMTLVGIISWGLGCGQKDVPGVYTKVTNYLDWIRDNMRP

B1: alkyl-β2gpi: reduced and alkylated β2-glycoprotein I (protein)
chain: GRTCPKPDDLPFSTVVPLKTFYEPGEEITYSCKPGYVSRGGMRKFICPLTGLWPINTLKCTPRVCPFAGILENGAVRYTTFEYPNTISFSCNTGFYLNGADSAKCTEEGKWSPELPVCAPIICPPPSIPTFATLRVYKPSAGNNSLYRDTAVFECLPQHAMFGNDTITCTTHGNWTKLPECREVKCPFPSRPDNGFVNYPAKPTLYYKDKATFGCHDGYSLDGPEEIECTKLGNWSAMPSCKASCKVPVKKATVVYQGERVKIQEKFKNGMLHGDKVSFFCKNKEKKCSYTEDAQCIDGTIEVPKCFKEHSSLAFWKTDASDVKPC
Consider B1, for which the “Thioflavin T fluorescence” value in data set [1] is listed as “enhanced Thioflavin T fluorescence”. For the same molecule, the “ability to activate tPA/plasminogen” value with tPA was “amyloid-like properties”.

B2: heat-denatured OVA: ovalbumin heated to 85° C. (protein)
chain: GSIGAASMEFCFDVFKELKVHHANENIFYCPIAIMSALAMVYLGAKDSTRTQINKVVRFDKLPGFGDSIEAQCGTSVNVHSSLRDILNQITKPNDVYSFSLASRLYAEERYPILPEYLQCVKELYRGGLEPINFQTAADQARELINSWVESQTNGIIRNVLQPSSVDSQTAMVLVNAIVFKGLWEKAFKDEDTQAMPFRVTEQESKPVQMMYQIGLFRVASMASEKMKILELPFASGTMSMLVLLPDEVSGLEQLESIINFEKLTEWTSSNVMEERKIKVYLPRMKMEEKYNLTSVLMAMGITDVFSSSANLSGISSAESLKISQAVHAAHAEINEAGREVVGSAEAGVDAASVSEEFRADHPFLFCIKHIATNAVLFFGRCVSP
As to B2, the “presence of cross-β structure conformation” value in data set [2] is listed as “comprise the cross-β structure conformation”. In addition, in the data set with fibronectin F4,5, the “affinity for fibronectin F4,5” value is on record as “clear difference in binding affinity”. The “binding of tPA F-EGF” value with tPA F-EGF is recorded as “Much lower binding”.

The values above are taken from patent publication US20080220446A1, “Method for Detecting and/or Removing Protein and/or Peptide Comprising a Cross-Beta Structure From an Aqueous Solution Comprising a Protein” (priority 2005, published 2008).
